Measurements from US20150125397A1, “DUAL SPECIFIC BINDING PROTEINS DIRECTED AGAINST IMMUNE CELL RECEPTORS AND AUTOANTIGENS” (ABBVIE INC., priority 2013, published 2015).
Entries after “also recorded” stand apart in the source; their conditions may differ.

Columns and labels:
Assay type in all cases: cell-based, mouse
[1] = tested on: Dnase2−/− Ifnar1−/− Unc93b1−/− TKO B cells; assay: 3H-thymidine incorporation of B220-purified B cells, TKO; conditions: 24 hours, FIG. 10C
Source text: (§1) Mice: RF and Tlr-9^−/− mice have been described previously (Uccellini et al. (2008) J. Immunol. 181:5875-5884), The DNase II-deficient mice on a C57BL/6 background were kindly provided by Dr. S, Nagata and obtained from the RIKEN Institute. […] and Unc93B1-deficient mice were obtained from Jackson Lab. DnaseII^−/− Ifnar1^−/− (Het), DnaseII^−/− Ifnar1−/− (DKO), and DnaseII^−/− Unc93b1^−/− (TKO), were bred at UMMS. All mice were maintained at the Department of Animal Medicine of the University of Massachusetts Medical School in accordance with the regulations of the American Association for the Accreditation of Laboratory Animal Care.
(§2) Proliferation of B220+ B cells: B cells were purified by magnetic bead separation using CD45R/B220-conjugated magnetic particles (BD Biosciences, San Jose, Calif., USA) and stimulated as described previously (Nundel et al. (2013) J. Leukoc. Biol. 94:865-875) with 15 μg/ml goat anti-mouse IgM F(ab′)2 (Jackson ImmunoResearch), ODN1826 (CpG; Idera Pharmaceuticals), anti-DNA-mAb (Leadbetter et al. (2002) Nature 416:603-607), or DVD-Ig proteins (1 μg/ml). B cell proliferation was assessed by ^3H-thymidine (Amersham Biosciences, Piscataway, N.J., USA) incorporation at 24 hours post-stimulation. For long-term proliferation assays, B220-purified B cells were labeled with a final concentration of 2.5 μM CFSE (Life Technologies) in PBS for 2 minutes. […]

[2] = tested on: Dnase2−/− Ifnar1−/− DKO B cells; assay: 3H-thymidine incorporation of B220-purified B cells, DKO; conditions: 24 hours, FIG. 10C
Source text: as §1, §2

[3] = tested on: RF B cells; assay: Proliferation of B220+ B cells, RF (AM14)
Procedure: (§3) Proliferation of B220+ B cells: B cells were purified by magnetic bead separation using CD45R/B220-conjugated magnetic particles (BD Biosciences, San Jose, Calif., USA) and stimulated as described previously (Nundel et al. (2013) J. Leukoc. Biol. 94:865-875) with 15 μg/ml goat anti-mouse IgM F(ab′)2 (Jackson ImmunoResearch), ODN1826 (CpG; Idera Pharmaceuticals), anti-DNA-mAb (Leadbetter et al. (2002) Nature 416:603-607), or DVD-Ig proteins (1 μg/ml). B cell proliferation was assessed by ^3H-thymidine (Amersham Biosciences, Piscataway, N.J., USA) incorporation at 24 hours post-stimulation. For long-term proliferation assays, B220-purified B cells were labeled with a final concentration of 2.5 μM CFSE (Life Technologies) in PBS for 2 minutes. The cells were then washed and cultured for 72 hours in the presence of BLyS (Human Genome Sciences).
(§4) FACS for B cells: Multicolor flow cytometry analysis was carried out using a BD LSR II with DIVA software (BD Biosciences). Analysis was conducted with FlowJo software (Tree Star, Ashland, Oreg., USA) Immature and mature B cell ratios were determined using Pacific Blue-B220 and APC-AA4.1 (eBioscience). Dead cells and debris were excluded by forward- and side-scatter. Proliferation was assessed by CFSE dilution. Cell death was ascertained using the DNA stain TO-PRO-3 (Life Technologies) at a final concentration of 20 nM.

[4] = tested on: RF Tlr9−/− or BALB/c Tlr9−/− B cells; assay: Proliferation of B220+ B cells, Tlr9-/-; conditions: 3H-thymidine 24 hours, CFSE 72 hours; FIG. 9
Procedure: as §3, §4

[5] = tested on: BALB/c B cells; assay: Proliferation of B220+ B cells, non-Tg BALB/c; conditions: 3H-thymidine 24 hours, CFSE 72 hours; FIG. 8D, 9
Procedure: as §3, §4

[6] = tested on: Primary murine B cells; assay: CFSE dilution / Sytox Blue FACS of primary murine B cells; conditions: 72 hours, FIG. 3
Procedure: Primary murine B cells were purified by positive selection as described above. For cultures >48 hours old, proliferation was quantified by carboxyfluorescein diacetate, succinimidyl ester (CFSE) dilution and cell death by TO-PRO-3 binding. To label the cells with CFSE, the cells were first washed 2 times with PBS. Next, the stock of CFSE was diluted to 10 μM in PBS and the cells were brought to 1×10^7 cells/ml. The cells were mixed at a 1:1 ratio with 10 μM CFSE and mixed gently for 2 minutes. The CFSE labeling reaction was stopped by adding heat inactivated fetal calf serum equal in volume to the starting volume for the cell suspension. […] Proliferation was measured by fluorophore dilution at 60-72 hours by flow cytometry. […]
Primary murine B cells were labeled and prepared as in Example 2.7 and stimulated with either media alone, […] of TLR9 ligand CpG oligodeoxynucleotide (ODN) 1826, […] of the mouse anti-chromatin autoantibody PL2-3 or […] DVD3759 in the presence or absence of […] of the B cell survival factor BLyS. After 72 hours, cells were stained with 1 μM of the cell permeable DNA stain Sytox Blue and analyzed by fluorescence activated cell sorting (FACS). Cell division was determined by dilution of CFSE and dead cells were identified by staining with Sytox Blue.

[7] = tested on: wild type (WT) primary B cells; assay: CFSE dilution / TO-PRO-3 FACS of wild type B cells (Example 4); conditions: 72 hours, FIG. 4
Procedure: Primary murine B cells were purified by positive selection as described above. For cultures >48 hours old, proliferation was quantified by carboxyfluorescein diacetate, succinimidyl ester (CFSE) dilution and cell death by TO-PRO-3 binding. To label the cells with CFSE, the cells were first washed 2 times with PBS. Next, the stock of CFSE was diluted to 10 μM in PBS and the cells were brought to 1×10^7 cells/ml. The cells were mixed at a 1:1 ratio with 10 μM CFSE and mixed gently for 2 minutes. The CFSE labeling reaction was stopped by adding heat inactivated fetal calf serum equal in volume to the starting volume for the cell suspension. The cells were washed two times with media and resuspended to 1-4×10^6 cells/ml and were incubated with 0.5 μg/ml DVD-Ig proteins (DVD3759 and DVD3754) or antibodies, with or with out 0.05 μg/ml Blys. Proliferation was measured by fluorophore dilution at 60-72 hours by flow cytometry. […]
To determine if IRAK4 kinase activity is required for activation and/or death induced TLR9 via DVD3759, either wild type (WT), IRAK2 knock out (IRAK2KO) or IRAK 4 knock-in (IRAK4 KI) primary B cells were purified and tested in a method similar to Example 2.7. […] After 72 hours, cells were stained with 500 nM of the cell permeable DNA stain TOP-RO-3 and analyzed by FACS. Cell division was determined by dilution of CFSE and dead cells were identified by staining with TOP-RO-3.

Molecule	response of TKO B cells [1]	response of DKO B cells [2]	level of activation compared with anti-DNA mAb ([3]; FIG. 9A,B)	activation / proliferation of RF B cells ([3]; Tlr9+/+, 3H-thymidine 24 hours, CFSE 72 hours, FIG. 9)	proliferation of Tlr9−/− B cells [4]	activation / proliferation of non-Tg BALB/c B cells [5]	effect of addition of BLyS on cell death ([6]; 0.05 mg/ml BLyS)	cell division (CFSE dilution) and cell death (Sytox Blue) ([6]; absence of BLyS)	effect of addition of BLyS on cell death ([7]; 0.05 μg/ml BLyS)	cell division (CFSE dilution) and cell death (TO-PRO-3) ([7]; 0.5 μg/ml)
DVD3754: DVD-Ig: VD1 DNA(PA4), SL linker, VD2 mIgM (B7.6); heavy SEQ ID NO 54, light 55 (antibody) heavy: EVQLVESGGGLVKPGGSLKLSCVASGFTFSTYAMSWVRQTPTKRLEWVATISRGGVSTYYPDTVKGRFTISRDNAKNTLYLQMSSLRSEDTAMYYCARPPTIVTTWFAYWGQGTLVTVSSASTKGPQVQLKESGPGLVKPSLTLSLTCTVSGFSLNGYGVIWVRQPPGKGLEWMGVIWGNGNTNYNSTLKSRLSISRDTSKSQVFLKMNNLQTEDTAMYFCARSENYYSSPGYFAYWGQGTLVTVSS light: DVVMTQTPLSLPVSLGDQASISCRSSQSLVHSNGNTYLHWYLQKPGQSPKLLIYKVSNRFSGVPDRFSGSGSGTDFTLKISRVEAEDLGAYFCSQSTHVPYTFGGPTRLEIKRTVAAPSVFIFPPNTVMTQSPTSMFISVGDRVTMNCKASQNVGSDVDWYQQKTGQSPKLLISGTSNRYTGVPDRFTGSGSGTDFTLTISNMQAEDLAVYYCLQYNYNPTFGAGTKLELKR	failed to respond	failed to respond	comparable	induced both RF and non-Tg BALB/c B cells	not RF Tlr9^−/− or BALB/c Tlr9^−/− B cells	stimulated BALB/c B cells more strongly than the rest; also recorded: induced both RF and non-Tg BALB/c B cells				
DVD3759: DVD-Ig: VD1 mIgM (B7.6), SL linker, VD2 DNA(PA4); heavy SEQ ID NO 64, light 65 (antibody) heavy: QVQLKESGPGLVKPSLTLSLTCTVSGFSLNGYGVIWVRQPPGKGLEWMGVIWGNGNTNYNSTLKSRLSISRDTSKSQVFLKMNNLQTEDTAMYFCARSENYYSSPGYFAYWGQGTLVTVSSASTKGPEVQLVESGGGLVKPGGSLKLSCVASGFTFSTYAMSWVRQTPTKRLEWVATISRGGVSTYYPDTVKGRFTISRDNAKNTLYLQMSSLRSEDTAMYYCARPPTIVTTWFAYWGQGTLVTVSS light: NTVMTQSPTSMFISVGDRVTMNCKASQNVGSDVDWYQQKTGQSPKLLISGTSNRYTGVPDRFTGSGSGTDFTLTISNMQAEDLAVYYCLQYNYNPTFGAGTKLELKRTVAAPSVFIFPPDVVMTQTPLSLPVSLGDQASISCRSSQSLVHSNGNTYLHWYLQKPGQSPKLLIYKVSNRFSGVPDRFSGSGSGTDFTLKISRVEAEDLGAYFCSQSTHVPYTFGGPTRLEIKR							could be rescued	induced several rounds of division followed by post-proliferative cell death	could be rescued	induced several rounds of division followed by post-proliferative cell death
